{"source": "the supplement of paper PMC12636428", "test_system": "Saccharomyces cerevisiae", "test": "transcriptional activation domain activity (GFP:mCherry ratio, weighted mean of sorted bins, harmonized to initial dataset scale) (arbitrary fluorescence ratio units); higher = stronger transcriptional activation", "settings": "beta-estradiol 1 µM; induction time 4 h", "in_short": "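Activation activity, the read-weighted mean of bin median fluorescence averaged across barcodes, was linearly mapped onto the scale of the initial dataset. It was measured for barcoded protein tiles fused to an estradiol-inducible synthetic transcription factor at URA3 in GFP-reporter yeast diploids. Cultures diluted 1:5 into SC with 1 uM beta-estradiol were held 4 hours at 30 °C, sorted into 8 bins by GFP:mCherry ratio, and barcode-sequenced, and tiles under 50 reads were discarded.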"}
{"sequence": "MRWTSTISFFLLPLGFFFSFHPFHIPFSTFLVSFEICIFFLSFFFSFLPIFLF", "values": [{"measurement": "transcriptional activation domain activity", "result": 58500}]}
{"sequence": "DSATPHGSPRRWTPSSKLSPSVAPSSPSSSTSTSSSPKARSRSHSRTCSTEVQ", "values": [{"measurement": "transcriptional activation domain activity", "result": 42200}]}
{"sequence": "MGGGGGACSCSIAYIHGFLSSLFFLLFATTFFHYSFCLLLLWMLIFFWLFAFV", "values": [{"measurement": "transcriptional activation domain activity", "result": "< 6570"}]}
{"sequence": "MHSMRHAPSSFFLLFRPVIVFMAVVFSNFYLLPLLFSLLYVILCFFLYILFVS", "values": [{"measurement": "transcriptional activation domain activity", "result": 34600}]}
{"sequence": "SDDGGSSSEIIRVLGGPSIGDIRSRLIRLMPSAPPNSPLDAICRLLAYRLPVQ", "values": [{"measurement": "transcriptional activation domain activity", "result": 37600}]}
{"sequence": "MANHQLYTDWLYLWWIAYTNKMAGHVYIILKESLKNIPLIGWGAQFYNFIFLA", "values": [{"measurement": "transcriptional activation domain activity", "result": 54800}]}
{"sequence": "TSSPSAISSTSVNTLLVAGSEGTDAHVKTVGEQLKTRMGVKGGGKGTRWSGKM", "values": [{"measurement": "transcriptional activation domain activity", "result": 57300}]}
{"sequence": "MPPQSRQSRMPEAPAEPRSARGRVTKRRSGNACVRCRRQKIKCSGSHPCEACS", "values": [{"measurement": "transcriptional activation domain activity", "result": 24800}]}
{"sequence": "VLVVVVALPVVAVMVIMVVVVVVVVVVAIIGGGGWWMWLGLWLRLLIEMDVGA", "values": [{"measurement": "transcriptional activation domain activity", "result": 32900}]}
{"sequence": "MRQARGLHCRCPFGYRASLVLCLYLDVLFEGGFLYFYFFVPFFHATTFFFFLL", "values": [{"measurement": "transcriptional activation domain activity", "result": 37700}]}
{"sequence": "NIAQNMNQFRRQQVVYSPDTRKYSLLIREGRVGYPGVACMEIESTDPSLVVDK", "values": [{"measurement": "transcriptional activation domain activity", "result": 35000}]}
{"sequence": "IGFYFLEYGQNCFRDDSDGPCWAGRYMVNVWNDLAVLRRLICYAAVQLARQHR", "values": [{"measurement": "transcriptional activation domain activity", "result": 40900}]}
{"sequence": "YRISLAILQLCKDHLLQSCPTNSEILAFLLHIPHDYLTADVLLDTAFHIKLSK", "values": [{"measurement": "transcriptional activation domain activity", "result": 54000}]}
{"sequence": "MIPPIHSPSFLQSYICFMLILPLPLMSIIVFHPLYFFWLFLSFLLLDYYLLLL", "values": [{"measurement": "transcriptional activation domain activity", "result": 23300}]}
{"sequence": "VVLASSPSSQTTSSTSVVLIFGSDDKRVKEVGEGLKAKLDMRGGGKGTRWSGK", "values": [{"measurement": "transcriptional activation domain activity", "result": 14200}]}
{"sequence": "MLVALCTYMIFNYYFFNFLLLFIFLYFTSYIVLSSSYSLVFISLIINSDFLFL", "values": [{"measurement": "transcriptional activation domain activity", "result": 57500}]}
{"sequence": "NMMLYLLKGLPALSMSDPASITRFIKLVDELLYYAYEAERRSPLPTSHPNLVR", "values": [{"measurement": "transcriptional activation domain activity", "result": 65700}]}
{"sequence": "KDYSVEAGIRFLQFIIHKCITVDIGVLCDIIDKVYGSLVIINCLRRYRNLHNL", "values": [{"measurement": "transcriptional activation domain activity", "result": 48500}]}
{"sequence": "EVLLLLMWMFWTKVVKIIPHFLRHPSDFPLVICQILFGYAHSFIKLWALVTFW", "values": [{"measurement": "transcriptional activation domain activity", "result": 47200}]}
{"sequence": "MAGRKRAAAEDTTEKRETRSSKVAKTEGTKTAGKAAKGTARLKARLIISLTIL", "values": [{"measurement": "transcriptional activation domain activity", "result": 34500}]}
{"sequence": "LFYFTFSFFVRTAFITLPIYLFWFLYSYFWNYWTSYFPWNDLFLPAWPISRTR", "values": [{"measurement": "transcriptional activation domain activity", "result": 39300}]}
{"sequence": "FFLRIAVEVLHIRIIWAIILVNVLFGFSYFMCAVLQCVPIPYIWKKYAANPPP", "values": [{"measurement": "transcriptional activation domain activity", "result": 43200}]}
{"sequence": "LYILLVFPILLLMMLHSLVTFLYVRAIDPLYGSVPINLHLDKIVWVATFAGAF", "values": [{"measurement": "transcriptional activation domain activity", "result": 63200}]}
{"sequence": "QFRYLKRLLLVHGHWSYARNGNMINNFFYKNIICIGVLWWFMIYCGWSSAYVF", "values": [{"measurement": "transcriptional activation domain activity", "result": 71200}]}
{"sequence": "KHEREFEGNSNRDREVVQGKREGGGGERGGRGRGAGGGGERGRGRGNSGRGDG", "values": [{"measurement": "transcriptional activation domain activity", "result": 12500}]}
{"sequence": "NNIISNRKQASKEKRKIPRHIQTIDEKLINDSNYLAFLKFDDLENEKFHSSAS", "values": [{"measurement": "transcriptional activation domain activity", "result": 56600}]}
{"sequence": "PAPAPAPAPRKGRSKKPVASPSASPVLAPAPAPAIALRKGRSKKPVASPSASP", "values": [{"measurement": "transcriptional activation domain activity", "result": 36100}]}
{"sequence": "MFTFNASSTINITLSILCYFIFLISVLLIRLYLNNSFMLFSLFFFFYFIYVIL", "values": [{"measurement": "transcriptional activation domain activity", "result": 61200}]}
{"sequence": "MSAATATKPPATGTTPRREATSRASAPSPAAASRTPARSSTPTATASATTSSP", "values": [{"measurement": "transcriptional activation domain activity", "result": 18000}]}
{"sequence": "PSRTSCATPSPTSSTSAVPSARSSTGPRSRSRSRTASTSSTRASAAPSCSCAR", "values": [{"measurement": "transcriptional activation domain activity", "result": 10500}]}
{"sequence": "MYLFFLFYILEFAVRSESGPICASNTKCIGRYCVYCKCTSLLSRVLRLLFICC", "values": [{"measurement": "transcriptional activation domain activity", "result": 64300}]}
{"sequence": "MRNEYYFFTSLSCIFSVLCFVSSFFYLVFSSLVLFFFFFLTGLFYLKFFCWVF", "values": [{"measurement": "transcriptional activation domain activity", "result": 39400}]}
{"sequence": "MPRPKRPGAPEAKTRSRKGCWPCKARKVKCGEEKPACSNCSRQGVICDYSIRL", "values": [{"measurement": "transcriptional activation domain activity", "result": 34600}]}
{"sequence": "MHFVWLYHPFAKYGDFYLILSFTYLRTITDCCSCCIMTTYGMLRIFPIFVILV", "values": [{"measurement": "transcriptional activation domain activity", "result": 79100}]}
